According to IntAct's records for PubMed 16311606:

B1: Polycystin-2 (Homo sapiens), Q13563 (parent)
chain: MVNSSRVQPQQPGDAKRPPAPRAPDPGRLMAGCAAVGASLAAPGGLCEQRGLEIEMQRIRQAAARDPPAGAAASPSPPLSSCSRQAWSRDNPGFEAEEEEEEVEGEEGGMVVEMDVEWRPGSRRSAASSAVSSVGARSRGLGGYHGAGHPSGRRRRREDQGPPCPSPVGGGDPLHRHLPLEGQPPRVAWAERLVRGLRGLWGTRLMEESSTNREKYLKSVLRELVTYLLFLIVLCILTYGMMSSNVYYYTRMMSQLFLDTPVSKTEKTNFKTLSSMEDFWKFTEGSLLDGLYWKMQPSNQTEADNRSFIFYENLLLGVPRIRQLRVRNGSCSIPQDLRDEIKECYDVYSVSSEDRAPFGPRNGTAWIYTSEKDLNGSSHWGIIATYSGAGYYLDLSRTREETAAQVASLKKNVWLDRGTRATFIDFSVYNANINLFCVVRLLVEFPATGGVIPSWQFQPLKLIRYVTTFDFFLAACEIIFCFFIFYYVVEEILEIRIHKLHYFRSFWNCLDVVIVVLSVVAIGINIYRTSNVEVLLQFLEDQNTFPNFEHLAYWQIQFNNIAAVTVFFVWIKLFKFINFNRTMSQLSTTMSRCAKDLFGFAIMFFIIFLAYAQLAYLVFGTQVDDFSTFQECIFTQFRIILGDINFAEIEEANRVLGPIYFTTFVFFMFFILLNMFLAIINDTYSEVKSDLAQQKAEMELSDLIRKGYHKALVKLKLKKNTVDDISESLRQGGGKLNFDELRQDLKGKGHTDAEIEAIFTKYDQDGDQELTEHEHQQMRDDLEKEREDLDLDHSSLPRPMSSRSFPRSLDDSEEDDDEDSGHSSRRRGSISSGVSYEEFQVLVRRVDRMEHSIGSIVSKIDAVIVKLEIMERAKLKRREVLGRLLDGVAEDERLGRDSEIHREQMERLVREELERWESDDAASQISHGLGTPVGLNGQPRPRSSRPSSSQSTEGMEGAGGNGSSNVHV
partner: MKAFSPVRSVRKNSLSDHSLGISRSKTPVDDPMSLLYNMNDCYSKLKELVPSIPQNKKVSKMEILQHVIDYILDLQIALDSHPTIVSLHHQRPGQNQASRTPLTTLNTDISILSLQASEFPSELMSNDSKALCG

Variants of: B1
Conditions: with id2_human ID2, Q02363

Row | Variant | effect of a mutation on the interaction
1 | S812A | disrupting interaction
